Laboratory results: patent US10849992B1, “Methods of screening for sortilin binding antagonists” (ALECTOR LLC, priority 2015, dated 2020)
Each block holds one molecule with its values, some of them ahead of it. No end group written: not given here. *: point of attachment. Biotin = O=C1N[C@H]2[C@H](CS[C@H]2CCCCC(=O)*)N1

How the values were obtained:
[1] = molecular target: T1, human sortilin expressed on cells (human, UniProt Q99523 78-831); assay: FACS, blocking of PGRN-DyLight650 binding and endocytosis on sortilin-expressing cells
T1 construct: Transiently transfected HEK293T cells; The same id is used for endogenous sortilin on U-251 cells; also called Sortilin1; full-length Sortilin
T1 sequence: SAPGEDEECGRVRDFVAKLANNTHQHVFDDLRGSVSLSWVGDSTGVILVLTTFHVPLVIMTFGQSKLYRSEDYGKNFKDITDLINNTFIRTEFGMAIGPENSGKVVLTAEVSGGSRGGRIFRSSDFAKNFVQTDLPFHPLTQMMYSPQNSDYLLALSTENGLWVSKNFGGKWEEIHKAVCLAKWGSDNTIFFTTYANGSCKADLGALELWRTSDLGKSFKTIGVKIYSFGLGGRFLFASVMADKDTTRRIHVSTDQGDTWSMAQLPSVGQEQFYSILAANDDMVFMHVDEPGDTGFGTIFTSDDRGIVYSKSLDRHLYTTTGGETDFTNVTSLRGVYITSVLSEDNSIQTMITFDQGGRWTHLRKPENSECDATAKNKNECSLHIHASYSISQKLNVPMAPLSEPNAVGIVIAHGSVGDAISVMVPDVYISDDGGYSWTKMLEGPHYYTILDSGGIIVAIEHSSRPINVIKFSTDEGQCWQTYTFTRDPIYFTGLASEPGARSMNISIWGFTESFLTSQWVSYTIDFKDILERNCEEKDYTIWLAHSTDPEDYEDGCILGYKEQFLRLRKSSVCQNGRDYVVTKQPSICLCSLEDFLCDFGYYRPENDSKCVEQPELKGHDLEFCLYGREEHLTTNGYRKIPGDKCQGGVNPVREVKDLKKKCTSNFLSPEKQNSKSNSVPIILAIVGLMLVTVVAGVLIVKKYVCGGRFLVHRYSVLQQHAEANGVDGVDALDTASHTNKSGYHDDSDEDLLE

[2] = molecular target: T1, human sortilin expressed on cells; assay: flow cytometry on transiently transfected HEK293T cells, on ice, Streptavidin-APC, median fluorescence intensity
Protocol: (§1) Cells were then washed and incubated with Streptavidin-APC and analyzed using Fluorescence Activated Cell Sorting (FACS). […] Cells were transiently transfected with human Sortilin or lacZ (control) and GFP using Fugene and harvested after 24 h. GFP was either expressed by a second vector (Topo3.3, Invitrogen) or located on the same vector, separated by an IRES sequence (pCMV6-AC-IRES-GFP, Origene). Full-length Sortilin was used either untagged (Topo3.3) or with a C-terminal myc tag (pCMV6-AC-IRES-GFP). […] After washing cells 3 times in HBSS+1% BSA, cells were incubated in Streptavidin-APC (BD Biosciences, 1:20) on ice for 30 min. Then cells were washed again, resuspended in HBSS+1% BSA and analyzed on a FACSCanto™ flow cytometer (BD Biosciences, Mississauga, ON).

[3] = molecular target: T2, Sortilin (Homo sapiens, UniProt Q99523); assay: Cell-based FACS assay: biotinylated PGRN binding to HEK293T cells expressing Sortilin; design: Full-length Sortilin was used either untagged (Topo3.3) or with a C-terminal myc tag (pCMV6-AC-IRES-GFP); myc (only in the pCMV6-AC-IRES-GFP construct); expressed in transfected cells; host or cells: HEK293T; conditions: on ice 2 h, Streptavidin-APC
T2 sequence (Q99523 78-831): T1 sequence
Protocol: HEK293T cells were transiently transfected with constructs for expressing Sortilin or LacZ (control) and incubated with biotinylated PGRN protein on ice for 2 h. Both human and mouse PGRN proteins were tested. Cells were then washed and incubated with Streptavidin-APC and analyzed using Fluorescence Activated Cell Sorting (FACS). For blocking assay, sortilin pro-domain peptide was used. Recombinant human PGRN (Adipogen) was biotinylated using a kit (EZ-link-Micro-NHS-PEG4 biotinylation kit, Thermo Scientific Pierce, #21955). Cells were transiently transfected with human Sortilin or lacZ (control) and GFP using Fugene and harvested after 24 h. GFP was either expressed by a second vector (Topo3.3, Invitrogen) or located on the same vector, separated by an IRES sequence (pCMV6-AC-IRES-GFP, Origene). Full-length Sortilin was used either untagged (Topo3.3) or with a C-terminal myc tag (pCMV6-AC-IRES-GFP). Human Progranulin was added in HBSS+1% BSA or PBS+1% BSA with or without Sortilin pro-peptide as a blocker, and incubated on ice for 2 h. […] Then cells were washed again, resuspended in HBSS+1% BSA and analyzed on a FACSCanto™ flow cytometer (BD Biosciences, Mississauga, ON). PGRN binding was measured as the median fluorescence intensity of APC on the GFP positive population.

[4] = molecular target: T1, human sortilin expressed on cells; assay: FACS, blocking of biotinylated PGRN binding to sortilin-expressing HEK293T cells
Protocol: as §1

[5] = molecular target: T3, sortilin protein with a C-terminal 6×His-tag (Homo sapiens (Human), UniProt Q99523 78-755, directly conjugated with d2 in assay format #3 (site not stated); unlabeled and detected with d2-labeled 1C12 in assay format #10); assay: HTRF, assay format #3: sortilin-d2 at 9 nM, SA-Tb at 0.33 nM; assay format #3: directly d2 conjugated sortilin, SA-Tb
T3 construct: Soluble sortilin of the HTRF assays; also called sortilin-d2; Tb-conjugated sortilin protein
T3 sequence: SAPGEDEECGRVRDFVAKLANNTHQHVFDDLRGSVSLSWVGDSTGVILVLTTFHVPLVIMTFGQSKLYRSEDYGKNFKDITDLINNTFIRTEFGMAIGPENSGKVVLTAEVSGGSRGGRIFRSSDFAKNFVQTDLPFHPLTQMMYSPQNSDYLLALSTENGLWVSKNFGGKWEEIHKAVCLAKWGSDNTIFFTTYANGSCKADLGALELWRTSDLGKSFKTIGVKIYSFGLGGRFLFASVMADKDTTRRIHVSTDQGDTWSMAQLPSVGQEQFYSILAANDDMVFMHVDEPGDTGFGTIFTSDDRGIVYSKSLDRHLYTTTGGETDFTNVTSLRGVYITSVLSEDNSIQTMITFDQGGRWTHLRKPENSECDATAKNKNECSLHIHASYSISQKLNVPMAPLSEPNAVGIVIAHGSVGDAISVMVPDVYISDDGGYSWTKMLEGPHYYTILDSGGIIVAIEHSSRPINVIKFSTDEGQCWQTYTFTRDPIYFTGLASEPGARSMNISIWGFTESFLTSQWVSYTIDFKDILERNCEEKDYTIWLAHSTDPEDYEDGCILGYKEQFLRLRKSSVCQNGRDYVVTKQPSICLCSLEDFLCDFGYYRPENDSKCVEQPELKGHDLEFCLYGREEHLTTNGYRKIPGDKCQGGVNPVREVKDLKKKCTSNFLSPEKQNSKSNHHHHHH
Description: (§2) Assay #3 uses directly d2 conjugated sortilin and SA-Tb to detect the peptide. […] Assay #10 uses anti-sortilin 1C12 antibody to detect sortilin and SA-Tb to detect the peptide.

[6] = molecular target: T3, sortilin protein with a C-terminal …; assay: HTRF, assay format #10: sortilin at 9 nM, anti-sortilin 1C12 at 20 ng/well, SA-Tb at 0.33 nM; assay format #10: sortilin detected with anti-sortilin 1C12 antibody, SA-Tb
Description: as §2

[7] = molecular target: T3, sortilin protein with a C-terminal …; assay: row HotKdNM of the drawn table: Kd of the labelled (biotinylated) peptide for sortilin, held constant in the Ki fit of assay format 10; same value in all three columns

B2: biotinylated mouse PGRN (ligand, UniProt P28798 18-589, looked up)
chain: TQCPDGQFCPVACCLDQGGANYSCCNPLLDTWPRITSHHLDGSCQTHGHCPAGYSCLLTVSGTSSCCPFSKGVSCGDGYHCCPQGFHCSADGKSCFQMSDNPLGAVQCPGSQFECPDSATCCIMVDGSWGCCPMPQASCCEDRVHCCPHGASCDLVHTRCVSPTGTHTLLKKFPAQKTNRAVSLPFSVVCPDAKTQCPDDSTCCELPTGKYGCCPMPNAICCSDHLHCCPQDTVCDLIQSKCLSKNYTTDLLTKLPGYPVKEVKCDMEVSCPEGYTCCRLNTGAWGCCPFAKAVCCEDHIHCCPAGFQCHTEKGTCEMGILQVPWMKKVIAPLRLPDPQILKSDTPCDDFTRCPTNNTCCKLNSGDWGCCPIPEAVCCSDNQHCCPQGFTCLAQGYCQKGDTMVAGLEKIPARQTTPLQIGDIGCDQHTSCPVGQTCCPSLKGSWACCQLPHAVCCEDRQHCCPAGYTCNVKARTCEKDVDFIQPPVLLTLGPKVGNVECGEGHFCHDNQTCCKDSAGVWACCPYLKGVCCRDGRHCCPGGFHCSARGTKCLRKKIPRWDMFLRDPVPRPLL
modifications: biotinylated (sites not given)
- binding result [2]: binds

B3: mouse PGRN: mouse PGRN protein, biotinylated, tested in the FACS binding assay (protein)
chain: B2 chain
- binding of PGRN to sortilin-expressing, but not control (LacZ), HEK293T cells [3]: strong and specific binding

B5: biotinylated PGRN peptide (peptide)
peptide: Biotin-TKCLRREAPRWDAPLRDPALRQLL
notes: Detected through streptavidin-Tb in formats #3, #6 and #10; also called 24 amino acid-sized C-terminal peptide of PGRN; biotinylated peptide
- Kd [5]: 2 nM
- Kd [6]: 1.6 nM
- Kd [7]: 1.4 nM

The next lines start with the values.

- IC50 [1]: 35 nM
B1: non-biotinylated PGRN peptide (peptide)
peptide: TKCLRREAPRWDAPLRDPALRQLL
notes: also called unlabeled PGRN peptide; C-terminal peptide of PGRN

- IC50 [1]: 450 nM
- IC50 [4]: ~5900 nM
B4: sortilin pro-domain peptide (peptide, UniProt Q99523 34-77, looked up)
peptide: QDRLDAPPPPAAPLPRWSGPIGVSWGLRAAAAGGAFPRGGRWRR
notes: domain: pro-domain; also called Sortilin1 pro-domain peptide; sortilin pro-peptide
